Laboratory results from publication PMC8962522 (2022).

Molecular target: CD44v3 (Homo sapiens, UniProt P16070)
Assay: MST

CD44v3, sequence (P16070 21-649): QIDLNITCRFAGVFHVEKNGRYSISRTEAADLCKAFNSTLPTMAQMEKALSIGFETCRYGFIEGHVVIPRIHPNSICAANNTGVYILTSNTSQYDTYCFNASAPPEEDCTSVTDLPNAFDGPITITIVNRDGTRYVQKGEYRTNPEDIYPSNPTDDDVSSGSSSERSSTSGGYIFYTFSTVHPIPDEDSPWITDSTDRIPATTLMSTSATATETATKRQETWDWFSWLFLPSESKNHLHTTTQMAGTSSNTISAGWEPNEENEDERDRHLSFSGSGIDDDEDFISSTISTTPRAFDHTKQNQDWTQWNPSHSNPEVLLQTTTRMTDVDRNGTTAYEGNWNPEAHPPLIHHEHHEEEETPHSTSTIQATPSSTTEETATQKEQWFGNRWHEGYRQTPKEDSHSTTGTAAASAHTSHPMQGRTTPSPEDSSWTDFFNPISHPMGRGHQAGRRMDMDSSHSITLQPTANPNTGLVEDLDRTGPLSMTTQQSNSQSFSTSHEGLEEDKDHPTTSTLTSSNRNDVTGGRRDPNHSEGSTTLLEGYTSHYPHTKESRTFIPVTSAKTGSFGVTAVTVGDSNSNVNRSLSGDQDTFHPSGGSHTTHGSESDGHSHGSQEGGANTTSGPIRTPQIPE

Kd: 9.47 nM
B1: TrkA (protein)
chain: AAPCPDACCPHGSSGLRCTRDGALDSLHHLPGAENLTELYIENQQHLQHLELRDLRGLGELRNLTIVKSGLRFVAPDAFHFTPRLSRLNLSFNALESLSWKTVQGLSLQELVLSGNPLHCSCALRWLQRWEEEGLGGVPEQKLQCHGQGPLAHMPNASCGVPTLKVQVPNASVDVGDDVLLRCQVEGRGLEQAGWILTELEQSATVMKSGGLPSLGLTLANVTSDLNRKNVTCWAENDVGRAEVSVQVNVSFPASVQLHTAVEMHHWCIPFSVDGQPAPSLRWLFNGSVLNETSFIFTEFLEPAANETVRHGCLRLNQPTHVNNGNYTLLAANPFGQASASIMAAFMDNPFEFNPEDPIPVSFSPVDTNSTSGDPVEKKDETPFGVSVAVG
modifications: NGF
